Experimental findings from patent publication US20200283507A1 (US Dept. of Health and Human Services, published 2020) are described below.

The target of assay [1] is T1, Hu/NoV/GII.1/Hawaii/1971/U.S. VLP (human norovirus GII.1).
T1 construct: mature; baculovirus VLP; VP2 may be present
Nature of the assay: VLP ELISA.

Assay [2] has as its target T2, Hu/NoV/Snow Mountain/GII.2/U.S. VLP (human norovirus GII.2).
T2 construct: mature; baculovirus VLP; VP2 may be present
In words: VLP ELISA.

Assay [3] concerns the target T3, Hu/NoV/GII.2/Henryton/1971/U.S. VLP (human norovirus GII.2).
T3 construct: mature; baculovirus VLP; VP2 may be present
Nature of the assay: VLP ELISA.

The target in assay [4] is T4, Hu/NoV/GII.3/CHDC4031/1988/U.S. VLP (human norovirus GII.3).
T4 construct: mature; baculovirus VLP; VP2 may be present
In words: VLP ELISA.

The target of assay [5] is T5, Hu/NoV/GII.4/CHDC4871/1977/U.S. VLP (human norovirus GII.4).
T5 construct: mature; baculovirus VLP; VP2 may be present
In words: VLP ELISA.

The target of assay [6] is T6, Hu/NoV/GII.4/RockvilleD1/2012/U.S. VLP (human norovirus GII.4).
T6 construct: mature; baculovirus VLP; VP2 may be present
Nature of the assay: VLP ELISA.

Assay [7] addresses T7, Hu/NoV/GII.4/MD2004/2004/U.S. VLP (human norovirus GII.4).
T7 construct: mature; baculovirus VLP; VP2 may be present; also called MD2004 VLP
In words: VLP ELISA.

In assay [8] the target is T8, Hu/NoV/GII.4/MD145-12/1997/U.S. VLP (human norovirus GII.4).
T8 construct: mature; baculovirus VLP; VP2 may be present
Nature of the assay: VLP ELISA.

For assay [9], the target named is T9, Hu/NoV/GII.4/HS-191/2001/U.S. VLP (human norovirus GII.4).
T9 construct: mature; baculovirus VLP; VP2 may be present
Nature of the assay: VLP ELISA.

For assay [10], the target named is T10, Hu/GII.6/Bethesda/2012/U.S. VLP (human norovirus GII.6).
T10 construct: mature; baculovirus VLP; VP2 may be present
Nature of the assay: VLP ELISA.

Assay [11] has as its target T11, Hu/NoV/GII.7/DC119/U.S. VLP (human norovirus GII.7).
T11 construct: mature; baculovirus VLP; VP2 may be present
Nature of the assay: VLP ELISA.

Assay [12] deals with T12, Hu/NoV/GII.14/M7/1999/U.S. VLP (human norovirus GII.14).
T12 construct: mature; baculovirus VLP; VP2 may be present
In words: VLP ELISA.

Assay [13] deals with T8, Hu/NoV/GII.4/MD145-12/1997/U.S. VLP. In words: cell-based or functional assay.
The target of assay [14] is T13, Toronto VP1 peptide 512-528 (NoV Toronto strain, also: biotinylated (position not given here)).
T13 construct: 17-mer of the P domain peptide library, captured on neutravidin plates
T13 peptide: GYFRFESWVNPFYTLAP
In words: ELISA on biotinylated peptide. The protocol:
(§1) For this assay, a peptidic library of 67 peptides corresponding to the P domain of the VP1 amino acid sequence from NoV Toronto strain was synthetized. The peptides were 17 amino acids long, with 5 amino acids overlapping with the previous and the next peptide of the sequence. Neutravidin coated plates (PIERCE®) were used for this assay. The plates were coated with each biotinylated peptide in duplicates (2 μl of peptide/100 μl of PBS 0.1% BSA per well) overnight at 4° C. Then, after washing the plates, 100 ng/well of 7.5 VHH were added and the plates were incubated for 2 hours at room temperature. The plates were washed and incubated with rabbit anti-VHH serum (1/8,000) and HRP-conjugated goat anti-rabbit immunoglobulin G (1:2,000) (KPL). The signal was developed with ABTS/H₂O₂.

Assay [15] deals with T14, Toronto VP1 peptide 517-533 (NoV Toronto strain, also: biotinylated (position not given here)).
T14 construct: 17-mer of the P domain peptide library
T14 peptide: ESWVNPFYTLAPMGTGN
Nature of the assay: ELISA on biotinylated peptide. The method, then:
as §1

Assay [16] has as its target T15, Toronto VP1 peptide 507-523 (NoV Toronto strain, also: biotinylated (position not given here)).
T15 construct: 17-mer of the P domain peptide library
T15 peptide: TVPPNGYFRFESWVNPF
Nature of the assay: ELISA on biotinylated peptide. The method, then: as §1

Assay [17] deals with T16, Toronto VP1 peptide 522-538 (NoV Toronto strain, also: biotinylated (position not given here)).
T16 construct: 17-mer of the P domain peptide library
T16 peptide: PFYTLAPMGTGNGRRRI
In words: ELISA on biotinylated peptide. The protocol:
as §1

No end group written: not given here.

B1: VHH 7.5 (VHH)
VHH: QVKLQESGGGLVQAGESLRLSCAASGSNFSINGVGWYRQAPGKQRELVAGITNGGYTSYADSVKGRFTISTDNAKNTVYLQMNSLRPEDTAVYYCNANFQIHRSGADYVRNYWGQGTQVTVSA
notes: llama VHH, MD2004 library; pHEN6, C-terminal His6 tag; also called clone 7.5
B1: the “minimum concentration of VHH able to recognize 100 ng of VLP” value in assay [1] turned out to be 1 ng/well; in assay [2] it was 2 ng/well; in assay [3], 1 ng/well; in [4] it was 1 ng/well; in assay [5] it was 2 ng/well; in assay [6] it was 0.5 ng/well. The “minimum concentration of VHH able to recognize 100 ng of VLP” value in assay [7] was determined as 0.5 ng/well; in assay [8] it was 0.5 ng/well; in [9], 2 ng/well; in [10], 1 ng/well; in [11] it was 1 ng/well; in [12] it was 1 ng/well. Also, in assay [13], the “HAI titer, B Rh+ RBC” value is 0.78 µg/mL. In addition, the binding result in assay [14] is “binds”; in assay [15] it was “binds”; in assay [16], “no binding (tested: 100 ng/well)”; in assay [17], “no binding (tested: 100 ng/well)”.
